From article PMC4865801

cells with resurgent currents (whole-cell patch clamp, 100 µM β4-peptide in the pipette, 50 nM ATX-II in the bath) (out of 15 cells) (hNav1.7/ΔL955 (human)): 1
share of cells with resurgent currents (whole-cell patch clamp, 100 µM β4-peptide in the pipette, 50 nM ATX-II in the bath) (hNav1.7 WT (human)): 42%
share of cells with resurgent currents (whole-cell patch clamp, 100 µM β4-peptide in the pipette, 50 nM ATX-II in the bath) (hNav1.7/V948C (human)): 55%
Binder: KKLITFILKKTREK [β4-peptide]
